Patent US20250129163A1

Molecular target: FcγRIIIa-bio (UniProt P08637)
Test: BLI (Fortebio), FcγRIIIa-bio immobilized on SA sensor, antibody 31.3-500 nM, 1:1 fit

Chain of UniProt P08637 (P08637 17-208 limits assumed): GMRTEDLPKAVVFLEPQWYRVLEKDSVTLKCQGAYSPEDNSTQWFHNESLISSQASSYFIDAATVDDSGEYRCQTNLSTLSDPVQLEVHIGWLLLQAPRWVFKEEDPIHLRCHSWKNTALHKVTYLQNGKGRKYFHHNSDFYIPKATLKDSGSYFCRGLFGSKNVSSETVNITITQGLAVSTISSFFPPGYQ

MEDI9447 (Oleclumab) (antibody)
Kd: 141 nM | koff: 0.0342 s⁻¹ | kon: 243000 M⁻¹ s⁻¹
